Measurements: the supplement of paper PMC10724198
± gives the standard deviation of the averaged measurements.

Assays:
Saccharomyces cerevisiae [1] = assay: protein stability index of tFT-peptide fusion (C-terminal peptide) (PSI (0-1 scale)); higher = more stable (slower turnover)
Method: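 MPS profiling in S. cerevisiae of the tFT-X12 degron library: putative degron peptides plus stable controls, 12 aa, fused to the C-terminus of a sfGFP-mCherry timer. Cells are FACS-sorted into 8 mCherry/sfGFP bins and deep-sequenced. PSI runs from 0 (unstable) to 1 (stable). Backgrounds are wild type, das1Δ and doa10Δ at 30 °C, and wild type, das1Δ, cdc34-1 and cdc53-1 at 37 °C; 2-3 technical replicates each.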

Saccharomyces cerevisiae [2] = assay: as above; conditions: genetic background: wild type; temperature: 30 C
[3] = genetic background: cdc34-1, temperature: 37 C
[4] = genetic background: cdc53-1, temperature: 37 C
[5] = genetic background: das1 deletion, temperature: 30 C
[6] = genetic background: das1 deletion, temperature: 37 C
[7] = genetic background: doa10 deletion, temperature: 30 C
[8] = genetic background: wild type, temperature: 30 C
[9] = genetic background: wild type, temperature: 37 C
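Further: PSI is a weighted mean of sequencing reads over stability bins, variants kept only with over 10 reads, mCherry proximal and sfGFP distal, peptide attached via GGGS linker.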

| Sequence | protein stability index (Saccharomyces cerevisiae [1]; [3]) | protein stability index (Saccharomyces cerevisiae [1]; [4]) | protein stability index (Saccharomyces cerevisiae [1]; [5]) | protein stability index (Saccharomyces cerevisiae [1]; [6]) | protein stability index (Saccharomyces cerevisiae [1]; [7]) | protein stability index (Saccharomyces cerevisiae [1]; [8]) | protein stability index (Saccharomyces cerevisiae [1]; [9]) | protein stability index (Saccharomyces cerevisiae [2]) |
| --- | --- | --- | --- | --- | --- | --- | --- | --- |
| PSPYSLSPYFLV | 0.678 ± 0.032 | 0.74 ± 0.011 | 0.646 ± 0.013 | 0.7674 ± 0.0074 | 0.255 ± 0.013 | 0.302 ± 0.043 | 0.4902 ± 0.0013 | 0.425 ± 0.044 |
| PSRLSFALLFHL | 0.6483 ± 0.00029 | 0.682 ± 0.017 | 0.645 ± 0.018 | 0.7268 ± 0.0049 | 0.395 ± 0.025 | 0.406 ± 0.039 | 0.545 ± 0.0058 | 0.49 ± 0.025 |
| PTAGFFGLLVLV | 0.361 ± 0.0094 | 0.402 ± 0.035 | 0.294 ± 0.029 | 0.439 ± 0.005 | 0.279 ± 0.0034 | 0.286 ± 0.02 | 0.4087 ± 0.00047 | 0.397 ± 0.005 |
| PVHARYCSLKWA | 0.658 ± 0.037 | 0.741 ± 0.021 | 0.6329 ± 0.0026 | 0.7389 ± 0.0042 | 0.237 ± 0.036 | 0.279 ± 0.013 | 0.5159 ± 0.0024 | 0.373 ± 0.087 |
| PWGVGLACLFLL | 0.469 ± 0.017 | 0.683 ± 0.016 | 0.585 ± 0.017 | 0.736 ± 0.022 | 0.0882 ± 0.025 | 0.096 ± 0.017 | 0.1134 ± 0.00036 | 0.126 ± 0.025 |
| PYPSVIFFLHVY | 0.43 ± 0.0097 | 0.572 ± 0.0084 | 0.413 ± 0.029 | 0.56 ± 0.0098 | 0.15851 ± 3.4e-05 | 0.169 ± 0.025 | 0.237 ± 0.021 | 0.251 ± 0.049 |
| QIGSMLGVQGVG | 0.454 ± 0.017 | 0.526 ± 0.013 | 0.461 ± 0.013 | 0.516 ± 0.0073 | 0.495 ± 0.014 | 0.4672 ± 0.0041 | 0.545 ± 0.027 | 0.498 ± 0.031 |
| QILVSYSFLYFF | 0.5506 ± 0.0046 | 0.592 ± 0.041 | 0.44 ± 0.03 | 0.609 ± 0.023 | 0.3549 ± 0.0034 | 0.38 ± 0.017 | 0.539 ± 0.0058 | 0.509 ± 0.1 |
| QVVWAVPRICLV | 0.53508 ± 0.00047 | 0.567 ± 0.0099 | 0.438 ± 0.015 | 0.579 ± 0.0091 | 0.335 ± 0.015 | 0.358 ± 0.028 | 0.505 ± 0.019 | 0.445 ± 0.063 |
| QWRSWSFATLVT | 0.332 ± 0.017 | 0.321 ± 0.012 | 0.266 ± 0.049 | 0.424 ± 0.0064 | 0.22 ± 0.0082 | 0.258 ± 0.038 | 0.409 ± 0.0052 | 0.383 ± 0.0045 |
| RCRLYLNVVVLC | 0.269 ± 0.027 | 0.31 ± 0.0054 | 0.287 ± 0.047 | 0.413 ± 0.02 | 0.129 ± 0.01 | 0.122 ± 0.025 | 0.17 ± 0.0064 | 0.246 ± 0.07 |
| RCTFSFSFPFVL | 0.738 ± 0.032 | 0.754 ± 0.034 | 0.601 ± 0.0084 | 0.768 ± 0.0096 | 0.5998 ± 0.0024 | 0.602 ± 0.023 | 0.729 ± 0.011 | 0.596 ± 0.15 |
| RFCRVERAILLR | 0.334 ± 0.0068 | 0.251 ± 0.0061 | 0.33 ± 0.049 | 0.4436 ± 0.0035 | 0.622 ± 0.039 | 0.351 ± 0.026 | 0.41 ± 0.0053 | 0.481 ± 0.015 |
| RFFKMREAIRIS | 0.567 ± 0.088 | 0.5742 ± 0.00075 | 0.392 ± 0.022 | 0.59 ± 0.052 | 0.205 ± 0.0066 | 0.24 ± 0.032 | 0.482 ± 0.0067 | 0.339 ± 0.027 |
| RFPFFLPFIAFL | 0.491 ± 0.012 | 0.539 ± 0.019 | 0.55 ± 0.0097 | 0.637 ± 0.0021 | 0.306 ± 0.013 | 0.254 ± 0.032 | 0.39 ± 0.0084 | 0.37 ± 0.036 |
| RGCFVLRKTHLL | 0.635 ± 0.0083 | 0.715 ± 0.017 | 0.645 ± 0.018 | 0.7323 ± 0.0044 | 0.126 ± 0.0097 | 0.152 ± 0.014 | 0.275 ± 0.0075 | 0.254 ± 0.0058 |
| RGVRALFLLLSF | 0.493 ± 0.042 | 0.51346 ± 1.4e-05 | 0.392 ± 0.039 | 0.575 ± 0.011 | 0.264 ± 0.0047 | 0.272 ± 0.016 | 0.45 ± 0.02 | 0.375 ± 0.059 |
| RHAHPLTAQLPL | 0.683 ± 0.031 | 0.707 ± 0.024 | 0.657 ± 0.026 | 0.747 ± 0.0096 | 0.694 ± 0.021 | 0.671 ± 0.042 | 0.7168 ± 0.0032 | 0.7048 ± 0.0032 |
| RHIPSIILAHVV | 0.645 ± 0.057 | 0.67 ± 0.016 | 0.585 ± 0.033 | 0.707 ± 0.033 | 0.172 ± 0.019 | 0.192 ± 0.024 | 0.296 ± 0.01 | 0.295 ± 0.037 |
| RICACHGIRFIP | 0.7111 ± 0.0033 | 0.742 ± 0.0023 | 0.637 ± 0.04 | 0.774 ± 0.051 | 0.3558 ± 0.0018 | 0.392 ± 0.032 | 0.617 ± 0.016 | 0.444 ± 0.064 |
